The target in the test is T1, E. coli expressed BAHD1(aa:588-780) (UniProt Q8TBE0 588-780).
T1 chain: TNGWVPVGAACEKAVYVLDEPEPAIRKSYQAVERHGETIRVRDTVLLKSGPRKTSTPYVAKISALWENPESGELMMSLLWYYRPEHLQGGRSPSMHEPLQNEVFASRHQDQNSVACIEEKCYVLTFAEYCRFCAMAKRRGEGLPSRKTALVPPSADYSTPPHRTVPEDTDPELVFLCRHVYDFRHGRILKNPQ
Put plainly: FP.

Numbered stars: 1 amine (or outer) side, 2 acyl side, 3 side chain; on linkers, the order of the positions; unused ones are H or OH. Square brackets hold non-standard residues; d marks the D form. Ends that are not written are not given here. Lys(Me3) = C[N+](C)(C)CCCC[C@H](N)C(=O)O; Ethylenediamine = C(CN[*:2])N[*:1]; 5‑FAM = fluorescent label

B1: H3 16-35 K27me3 peptide (peptide)
peptide: PRKQLATKAAR[Lys(Me3)]SAPATGG-{Ethylenediamine-4‑Abu-5‑FAM}
B1: the affinity, expressed as Kd, was 700 nM. That is a sub-micromolar value.

For the origin of these results see doi:10.1101/2022.07.22.501112 (2022).
